{"source": "paper doi:10.1101/2023.06.19.545293", "about": "(2023)", "key": {"[1]": {"biological_target": "T1, ZnF domain of A. thaliana SPL5 (Ser60-Leu127) (A. thaliana, UniProt Q9S758 60-127)", "T1 chain": "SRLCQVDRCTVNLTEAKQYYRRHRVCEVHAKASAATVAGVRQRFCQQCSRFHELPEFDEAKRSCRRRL", "experiment": "ITC; 25 °C, repeat 2"}, "[2]": {"biological_target": "T1, ZnF domain of A. thaliana SPL5 …", "experiment": "ITC; 25 °C, repeat 1"}}, "data": [{"binder": "SAP05 (mature, Ala33-Lys135) of Aster Yellows phytoplasma strain Witches Broom (natural protein) APNEEFVGDMRIVNVNLSNIDILKKHETFKKYFDFTLTGPRYNGNIAEFAMIWKIKNPPLNLLGVFFDDGTRDDEDDKYILEELKQIGNGAKNMYIFWQYEQK", "values": [{"measurement": "Kd", "setting": "[1]", "value": 388, "unit": "nM"}, {"measurement": "Kd", "setting": "[2]", "value": 510, "unit": "nM"}]}]}
